Measured values: patent publication US20240270821A1, “GIP/GLP1/GCG TRI-RECEPTOR AGONISTS AND USES THEREOF” (priority 2023, published 2024)
Changes are numbered by the printed parent chain. Starred links: 1 amine or outer side, 2 acyl side, 3 side chain; linkers in the order of their positions; H or OH if unused. Non-standard residues stand in square brackets, D forms with d. Groups on a side chain read outwards from the residue. No end group written: not given here. *: point of attachment. C18 diacid = O=C(O)CCCCCCCCCCCCCCCCC(=O)*; γGlu = O=C(O)[C@H](CCC(=O)[*:2])N[*:1]; αMe4Pal = C[C@](N)(Cc1ccncc1)C(=O)O; 4Pal = N[C@@H](Cc1ccncc1)C(=O)O; αMeL = CC(C)C[C@](C)(N)C(=O)O; Orn = NCCC[C@H](N)C(=O)O; Aib = CC(C)(N)C(=O)O

T1: human GIP receptor (human) (UniProt P48546)
T1 sequence (looked up): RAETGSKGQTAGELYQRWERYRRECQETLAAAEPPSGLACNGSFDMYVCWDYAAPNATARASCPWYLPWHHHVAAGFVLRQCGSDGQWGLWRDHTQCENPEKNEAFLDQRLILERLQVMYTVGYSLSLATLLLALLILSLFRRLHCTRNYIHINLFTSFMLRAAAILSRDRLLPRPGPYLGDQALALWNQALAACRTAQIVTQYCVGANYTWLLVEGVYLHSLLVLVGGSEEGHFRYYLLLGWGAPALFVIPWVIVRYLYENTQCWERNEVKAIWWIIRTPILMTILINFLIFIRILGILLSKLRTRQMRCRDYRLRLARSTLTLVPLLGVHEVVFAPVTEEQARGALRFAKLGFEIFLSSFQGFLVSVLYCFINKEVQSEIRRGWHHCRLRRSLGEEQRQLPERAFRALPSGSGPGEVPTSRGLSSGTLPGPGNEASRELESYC

B1: Example 1019 (peptide)
chain: YXQGTFTSDXSQXLDXKAQXAFIEYLIEAGPSSGEPPPSGS
modifications: not fully specified; non-natural residues, (γGlu)2-C18 diacid lysine acylation, C-terminal amide; synthetic construct; SITE 2: note = 2-Aminoisobutyric Acid; SITE 10: note = 3-(4-Pyridyl)-L-alanine; SITE 13: note = alpha-methyl-leucine; SITE 16: note = L-ornithine; SITE 17: note = Lysine is chemically modified through conjugation of the epsilon-amino group of the Lysine side chain with (gamma-Gl)
B2: Example 1022 (peptide)
chain: YXQGTFTSDXSQXLDXKAQXAFIEYLIEAGPSSGAPPPSGSE
modifications: not fully specified; Aib, 4Pal, αMeL, Orn, Me4Pal, acylated K, C-terminal amide; synthetic construct; SITE 2: note = 2-Aminoisobutyric Acid; SITE 10: note = 3-(4-Pyridyl)-L-alanine; SITE 13: note = alpha-methyl-leucine; SITE 16: note = L-ornithine; SITE 17: note = Lysine is chemically modified through conjugation of the epsilon-amino group of the Lysine side chain with (2-[2-(2-
B3: Example 1023 (peptide)
chain: B2 chain
modifications: not fully specified; acylated lysine (γGlu)2-C18 diacid; non-natural residues; C-terminal amide; synthetic construct; SITE 2: note = 2-Aminoisobutyric Acid; SITE 10: note = 3-(4-Pyridyl)-L-alanine; SITE 13: note = alpha-methyl-leucine; SITE 16: note = L-ornithine; SITE 17: note = Lysine is chemically modified through conjugation of the epsilon-amino group of the Lysine side chain with (gamma-Gl)
B4: Example 1024 (peptide)
chain: B2 chain with X16K
modifications: Aib, 4Pal, αMeL, Me4Pal; K acylated AEEA-(γGlu)2-C18 diacid; amide; synthetic construct; SITE 2: note = 2-Aminoisobutyric Acid; SITE 10: note = 3-(4-Pyridyl)-L-alanine; SITE 13: note = alpha-methyl-leucine; SITE 17: note = Lysine is chemically modified through conjugation of the epsilon-amino group of the Lysine side chain with (2-[2-(2-Amino-ethoxy)-ethoxy]-acetyl)
B5: Example 1025 (peptide)
chain: B2 chain with X16K
modifications: synthetic construct; SITE 2: note = 2-Aminoisobutyric Acid; SITE 10: note = 3-(4-Pyridyl)-L-alanine; SITE 13: note = alpha-methyl-leucine; SITE 17: note = Lysine is chemically modified through conjugation of the epsilon-amino group of the Lysine side chain with (gamma-Glu)2-CO-(CH2)16-CO2H; SITE 20:
B6: Example 1027 (peptide)
chain: YXQGTFTSDXSQXLDXKAQXAFIEXLIEGGPSSGEPPPSGSEE
modifications: Aib, 4Pal, αMeL, Orn, Me4Pal, αMeY; lipidated Lys; C-terminal amide; synthetic construct; SITE 2: note = 2-Aminoisobutyric Acid; SITE 10: note = 3-(4-Pyridyl)-L-alanine; SITE 13: note = alpha-methyl-leucine; SITE 16: note = L-ornithine; SITE 17: note = Lysine is chemically modified through conjugation of the epsilon-amino group of the Lysine side chain with (gamma-Gl)
B7: Example 1028 (peptide)
chain: B6 chain
modifications: non-natural residues; lysine acylated with C18 diacid; C-terminal amide; synthetic construct; SITE 2: note = 2-Aminoisobutyric Acid; SITE 10: note = 3-(4-Pyridyl)-L-alanine; SITE 13: note = alpha-methyl-leucine; SITE 16: note = L-ornithine; SITE 17: note = Lysine is chemically modified through conjugation of the epsilon-amino group of the Lysine side chain with (gamma-Gl)
B8: Example 1029 (peptide)
chain: B6 chain with X16K, X25Y, E28A, E35A
modifications: non-natural residues; AEEA-γGlu-C18 diacid on Lys; amide; synthetic construct; SITE 2: note = 2-Aminoisobutyric Acid; SITE 10: note = 3-(4-Pyridyl)-L-alanine; SITE 13: note = alpha-methyl-leucine; SITE 17: note = Lysine is chemically modified through conjugation of the epsilon-amino group of the Lysine side chain with (2-[2-(2-Amino-ethoxy)-ethoxy]-acetyl)
B9: Example 1030 (peptide)
chain: B6 chain with X16K, X25Y, E28A, E35A
modifications: synthetic construct; SITE 2: note = 2-Aminoisobutyric Acid; SITE 10: note = 3-(4-Pyridyl)-L-alanine; SITE 13: note = alpha-methyl-leucine; SITE 17: note = Lysine is chemically modified through conjugation of the epsilon-amino group of the Lysine side chain with (Glu)-(gamma-Glu)-CO-(CH2)16-CO2H; SIT
B10: Example 1031 (peptide)
chain: B6 chain with X25Y, E28A, E35A
modifications: non-natural residues; C18 diacid-(γ-Glu)2 acyl on Lys; C-terminal amide; synthetic construct; SITE 2: note = 2-Aminoisobutyric Acid; SITE 10: note = 3-(4-Pyridyl)-L-alanine; SITE 13: note = alpha-methyl-leucine; SITE 16: note = L-ornithine; SITE 17: note = Lysine is chemically modified through conjugation of the epsilon-amino group of the Lysine side chain with (gamma-Gl)
B11: Example 6 (peptide)
chain: YXQGTFTSDFSKXLDKKAQXAFIEYLLAGGPSSGEPPPSGG
modifications: Aib, αMeL; Lys acylated; C-terminal amide; synthetic construct; SITE 2: note = 2-Aminoisobutyric Acid; SITE 13: note = alpha-methyl-leucine; SITE 17: note = Lysine is chemically modified through conjugation of the epsilon-amino group of the Lysine side chain with (2-[2-(2-Amino-ethoxy)-ethoxy]-acetyl)-(gamma-Glu)-CO-(CH2) 18-CO2H; SITE 20: n
B12: Example 1033 (peptide)
chain: B6 chain with X25Y, E28A, E35A
modifications: Aib, 4Pal, Me4Pal, Orn, alpha-methyl-Leu, lipidated Lys, amide; synthetic construct; SITE 2: note = 2-Aminoisobutyric Acid; SITE 10: note = 3-(4-Pyridyl)-L-alanine; SITE 13: note = alpha-methyl-leucine; SITE 16: note = L-ornithine; SITE 17: note = Lysine is chemically modified through conjugation of the epsilon-amino group of the Lysine side chain with (Glu)2-(g)
B13: Example 1034 (peptide)
chain: B6 chain with X25Y, E28A, E35A
modifications: non-natural residues; lipidated Lys; C-terminal amide; synthetic construct; SITE 2: note = 2-Aminoisobutyric Acid; SITE 10: note = 3-(4-Pyridyl)-L-alanine; SITE 13: note = alpha-methyl-leucine; SITE 16: note = L-ornithine; SITE 17: note = Lysine is chemically modified through conjugation of the epsilon-amino group of the Lysine side chain with D-Glutami
B14: Example 1035 (peptide)
chain: B6 chain with X25Y, E28A, E35A
modifications: non-natural residues; acylated Lys; C-terminal amide; synthetic construct; SITE 2: note = 2-Aminoisobutyric Acid; SITE 10: note = 3-(4-Pyridyl)-L-alanine; SITE 13: note = alpha-methyl-leucine; SITE 16: note = L-ornithine; SITE 17: note = Lysine is chemically modified through conjugation of the epsilon-amino group of the Lysine side chain with (gamma-Gl)
B15: Example 1036 (peptide)
chain: B6 chain with X16K, X25Y, I27L, E28A, E35A
modifications: synthetic construct; SITE 2: note = 2-Aminoisobutyric Acid; SITE 10: note = 3-(4-Pyridyl)-L-alanine; SITE 13: note = alpha-methyl-leucine; SITE 17: note = Lysine is chemically modified through conjugation of the epsilon-amino group of the Lysine side chain with (gamma-Glu)2-CO-(CH2)16-CO2H; SITE 20:

The binders below were run against hGLP-1R (Homo sapiens, UniProt P43220) (assay: cell-based or functional assay).
Chain of hGLP-1R (P43220 24-463): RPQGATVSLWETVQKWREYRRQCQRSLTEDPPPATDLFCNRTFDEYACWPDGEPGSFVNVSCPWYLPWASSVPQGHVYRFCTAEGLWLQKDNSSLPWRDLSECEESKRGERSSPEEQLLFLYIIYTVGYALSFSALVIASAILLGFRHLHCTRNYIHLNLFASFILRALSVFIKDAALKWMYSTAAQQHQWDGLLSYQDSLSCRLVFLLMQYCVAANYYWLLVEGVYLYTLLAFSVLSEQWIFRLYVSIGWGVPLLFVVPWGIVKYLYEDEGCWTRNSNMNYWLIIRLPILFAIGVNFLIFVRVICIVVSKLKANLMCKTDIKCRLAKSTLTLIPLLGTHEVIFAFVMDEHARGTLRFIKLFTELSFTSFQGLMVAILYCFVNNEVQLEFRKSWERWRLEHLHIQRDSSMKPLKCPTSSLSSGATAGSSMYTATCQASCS

Going from B1 to B5, the Relative cAMP EC50 rises from 1.33 nM to 2.45 nM (1.8-fold).

B6 and B7 are within 1.5-fold of each other in Relative cAMP EC50: 1.23 nM for the first, 1.34 nM for the second.

B9 and B11 are within 1.5-fold of each other in Relative cAMP EC50: 1.72 nM for the first, 1.95 nM for the second.

B15 showed a Relative cAMP EC50 of 6.87 nM.

B1 and B2 are within 1.5-fold of each other in cAMP Rel EC50, nM (1% HSA): 161 nM for the first, 203 nM for the second.

B3 and B4 are within 1.5-fold of each other in cAMP Rel EC50, nM (1% HSA): 230 nM for the first, 330 nM for the second.

B5 and B6 are within 1.5-fold of each other in cAMP Rel EC50, nM (1% HSA): 352 nM for the first, 252 nM for the second.

Compared with B7, B8 is 5.8-fold lower in cAMP Rel EC50, nM (1% HSA): 986 nM for the first, 170 nM for the second.

Going from B9 to B10, the cAMP Rel EC50, nM (1% HSA) falls from 385 nM to 152 nM (2.5-fold).

Y[Aib]QGTFTSD[4Pal]SQ[αMeL]LD[Orn]KK([Glu-γGlu-C18 diacid])AQ[αMe4Pal]AFIEYLIAGGPSSGAPPPSGSEE-NH2 [Example 1032] and B12 are within 1.5-fold of each other in cAMP Rel EC50, nM (1% HSA): 148 nM for the first, 221 nM for the second.

First: B13
Second: B14
The cAMP Rel EC50, nM (1% HSA) of the first is 1.9-fold higher: 317 nM for the first, 167 nM for the second.

B15 was tested, and the cAMP Rel EC50, nM (1% HSA) was 1080 nM.

Work on B11 yielded a cAMP Rel EC50 (in the presence of 1% HSA) of 446 nM.

Each binder was assayed against T1, human GIP receptor (human) (assay: cell-based or functional assay).

B1 and B5 are within 1.5-fold of each other in Relative cAMP EC50: 0.169 nM for the first, 0.18 nM for the second.

B6 and B7 are within 1.5-fold of each other in Relative cAMP EC50: 0.208 nM for the first, 0.189 nM for the second.

Going from B9 to B11, the Relative cAMP EC50 rises from 0.122 nM to 0.232 nM (1.9-fold).

B15 gave a Relative cAMP EC50 of 0.114 nM.

B1 and B2 are within 1.5-fold of each other in cAMP Rel EC50, nM (1% HSA): 21.3 nM for the first, 27.9 nM for the second.

B3 and B4 are within 1.5-fold of each other in cAMP Rel EC50, nM (1% HSA): 26 nM for the first, 32.5 nM for the second.

First: B5
Second: B6
The cAMP Rel EC50, nM (1% HSA) of the first is 1.8-fold lower: 31.5 nM for the first, 58.1 nM for the second.

First: B7
Second: B8
The cAMP Rel EC50, nM (1% HSA) of the first is 7-fold higher: 157 nM for the first, 22.3 nM for the second.

B9 and B10 are within 1.5-fold of each other in cAMP Rel EC50, nM (1% HSA): 21 nM for the first, 17.3 nM for the second.

Y[Aib]QGTFTSD[4Pal]SQ[αMeL]LD[Orn]KK([Glu-γGlu-C18 diacid])AQ[αMe4Pal]AFIEYLIAGGPSSGAPPPSGSEE-NH2 [Example 1032] and B12 are within 1.5-fold of each other in cAMP Rel EC50, nM (1% HSA): 21.9 nM for the first, 23.4 nM for the second.

B13 and B14 are within 1.5-fold of each other in cAMP Rel EC50, nM (1% HSA): 23 nM for the first, 16 nM for the second.

B15 showed a cAMP Rel EC50, nM (1% HSA) of 13 nM.

B11 was tested, and the cAMP Rel EC50 (in the presence of 1% HSA) was 46.6 nM.

These binders were tested against human glucagon receptor (human) (UniProt P47871) (assay: cell-based or functional assay).
Chain of human glucagon receptor (human) (P47871 26-477): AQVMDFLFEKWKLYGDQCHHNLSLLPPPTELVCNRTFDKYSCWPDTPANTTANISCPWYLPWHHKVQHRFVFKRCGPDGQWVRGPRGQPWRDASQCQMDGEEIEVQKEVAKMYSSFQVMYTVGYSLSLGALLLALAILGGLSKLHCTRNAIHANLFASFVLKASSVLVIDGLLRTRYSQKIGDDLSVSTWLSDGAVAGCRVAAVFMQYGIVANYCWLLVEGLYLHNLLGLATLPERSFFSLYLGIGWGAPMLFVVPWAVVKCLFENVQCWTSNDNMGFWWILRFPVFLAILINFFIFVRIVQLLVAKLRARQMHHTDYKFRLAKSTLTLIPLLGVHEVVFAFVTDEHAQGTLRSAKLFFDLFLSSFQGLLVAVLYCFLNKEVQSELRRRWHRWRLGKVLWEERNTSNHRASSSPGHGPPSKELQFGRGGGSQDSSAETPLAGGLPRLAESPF

B1 and B5 are within 1.5-fold of each other in Relative cAMP EC50: 4.36 nM for the first, 3.22 nM for the second.

B6 and B7 are within 1.5-fold of each other in Relative cAMP EC50: 4.99 nM for the first, 5.77 nM for the second.

B9 and B11 are within 1.5-fold of each other in Relative cAMP EC50: 9.42 nM for the first, 6.89 nM for the second.

In the case of B15, the Relative cAMP EC50 is reported as 2.05 nM.

B1 and B2 are within 1.5-fold of each other in cAMP Rel EC50, nM (1% HSA): 579 nM for the first, 586 nM for the second.

B3 and B4 are within 1.5-fold of each other in cAMP Rel EC50, nM (1% HSA): 856 nM for the first, 760 nM for the second.

Going from B5 to B6, the cAMP Rel EC50, nM (1% HSA) rises from 625 nM to 1470 nM (2.4-fold).

Compared with B7, B8 is 7.7-fold lower in cAMP Rel EC50, nM (1% HSA): 3910 nM for the first, 511 nM for the second.

Compared with B9, B10 is 1.5-fold lower in cAMP Rel EC50, nM (1% HSA): 1830 nM for the first, 1200 nM for the second.

Compared with Y[Aib]QGTFTSD[4Pal]SQ[αMeL]LD[Orn]KK([Glu-γGlu-C18 diacid])AQ[αMe4Pal]AFIEYLIAGGPSSGAPPPSGSEE-NH2 [Example 1032], B12 is 2.4-fold higher in cAMP Rel EC50, nM (1% HSA): 900 nM for the first, 2170 nM for the second.

B13 and B14 are within 1.5-fold of each other in cAMP Rel EC50, nM (1% HSA): 1890 nM for the first, 1380 nM for the second.

For B15, the cAMP Rel EC50, nM (1% HSA) was 353 nM.

Work on B11 yielded a cAMP Rel EC50 (in the presence of 1% HSA) of 1380 nM.
